Drawing on patent US5550213, this text covers Ki for one substance.

The target of the test is Urokinase plasminogen activator (Homo sapiens (Human)) (UniProt P00749). Put plainly: inhibition of UK activity; Ki by non-linear regression (Enzfitter) of free enzyme versus inhibitor concentration.

By Ki is commonly meant a measure of affinity in units of concentration, obtained from inhibition or displacement. A high value points to weaker binding. On to “mutant with arginine at the P1 site of OM3TKY (designed binder)”, for which the Ki came to 1790 nM.
